Source: the domain aggregation screens of Martell et al. (2025)

Test: soluble fraction after stress (log2 fold change); higher = more stays soluble; pooled small domains, quantitative proteomics
Conditions: stress: 75 degC
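Further: 20 min heating vs room temperature control held 20 min.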

Sequence	soluble fraction (log2)
HMAAADLNMRAKLADLGGMSYGELSIWEKTHGMEFAAWEHEWEKLNSGTQADGLKFPKHLPEGFPT	0.185
HMAAAKDVMDWQNAIRGLTDAKGKPYSPTYLKTVHNQLSALFNHAVRYYGLQVNPAAKAGNMGVEE	-0.131
HMAADDGSARAEQLREMYSLISGLDKLDKAIILMWLDERSYDEIAEVTGFTRNNVATRLHRIKSRLARQSN	-1.66
HMAAEIGSGVVDAYDLRLRSQPSTDAETIIYLDNGAKLSVQEDLGDWYKVVSGTYTGYVSAEYVAYTPSPE	-0.806
HMAAELHPYGADSYRGDNPPAGYEIKAKEESKKFHTPSSPWYGRTIAEIWFRTEEAAEAAGFINAVK	-0.246
HMAAELQALSVRELEVLDQLAGGASNREIAQRLYISENTVRNHVHSILTKLKLQNRTQLVGMT	-0.981
HMAAESWTEKSRALAAAGLVVMGRDAQTKIEELTNLAPLIEAANASNTRLLTSQSIDELLSIVPTEENL	0.0818
HMAAGKGVTTGSVRLRKGSNTDSAIIATLKKDTELILYGKKDGWYSVKTSDGTEGFVSSKYVKVTEAY	0.61
HMAAGLTPKQKAFADNYIKNGGNAAEAARAAGYSLKNVGANAGKLLKNPKIAAYIAEKQAELDRRNGT	0.196
HMAAINPSALREPATPPEQLSAGDSVLHPRFGRGEILELQQQGGDPRAIVQFINEPKPRTLVLRYAQLRK	-0.138
HMAAKADAVKKAIAAIGKVDASEDSKAKVEAARKAYAALTEDQKKLVEASQLKLLTEAEAAYQQAVEESKK	-0.283
HMAAMSLGERIGAHRKRMGISQEELGHRMGVSRQAVSKWETGRAVPDMENLLALARLFGVPVSELAD	-0.129
HMAAPVGLTQRQMEVAALVADGLTNAEIGRRLHITERSAESHLERVRIRLGFRSRAQVAAWFVTQE	-3.56
HMAATHYEGIKQDGETDDAVIERVLTGLSVTANKDDIFIVKTLIAGTKYSYTAYVYNGNAWAAM	-1.38
HMAATSTGFPGVEVRGNSIRVFFMYKRDRHAHTLPLEPTRNNIKHADQLRSAALFALRNGTYNEADFFPHS	-1.6
HMAATVKVPDLTKMTPDEAQRALGQVGLKGKQGDDVDDDSVPVGYIAKQDEAPNSDAKAGDTITYHL	0.15
HMAAVSSHAVKQRIRSLIQAEDPASPLSDEALRLALSALGVEVSRRAVAKYRTSMDIPASSQRKK	-0.656
HMADEDTILALAKEILASWPDKVEAYKNGNKGMLGLFMGELMKKSGGKANPKSASALIQKLLE	-0.13
HMADEIQLVVQVNGKLRGRIMVAPDASREEIEKTALADADVSRFLGDTPVKKVIIVPKRLVNIVAPAPK	-1.08
HMADENIELRKAGLKVTLPRVKILQILEAAKEPHMSAEDVYKALMEANEEVGLATVYRVLTQFESAGL	-0.245
HMADGKWTLTDAGYTFTYSDGRKARGTWEDIDGEWYHFDRNGIMETGWKTVGNIRYHFNQDGSL	-1.52
HMADIGRMKELIDILNRASAVYYQGKDEIMSNFEYDKLYDELVSLEKESGLVLAGSPTQKVGY	-0.179
HMADKHVAAALLKLMDHLVGGRQYAFMKGRLTINKKVVLEATEVSAYRRGTGLSDADWQQRYE	-2.06
HMADLKRLNEQIHYLGQYLSTKATYKEFLQANNKKIYRSEHQDEIAKYEEAAQFLKRSSPDGTIPTMKDLR	-0.27
HMADLSAYAGKEGMTDSVLRPSGKVDIEGHILDAVSRGDFIEKGKRVIVIKAEGSYLVVKKRMP	-1.84
HMADLTEEQKTLFRLIRDLQPVSSKTLLENSGFTRSTQTRLLNGLIEKQIVIRTGNGPATRYSLR	-1.26

Sequence	soluble fraction (log2)
HMADLTIDGVEYTKVSPTGTLTLEKVYTKNVTPADGQYYIQTGTKTVRVATDAEVAVIKAGGF	0.153
HMADNKDMQAAFMEALNGLKEYAKVNGNIVTKEDVNSYFKDMHLDDNKYSMITGYLMANGITIKG	0.179
HMADPRFHSEIMLSKIESLLSGKADSDVSNYSIQGRSLTKMSLQELMDARESYDGLVKSEKAKLDAKY	0.0156
HMADPVTPQDLIRWSEALAGIARTGLGFTQSLYEQERFEEVLAVAADMRVAAGSSYNPDDLVHEWMKSVG	-0.565
HMADQVVGQLGMVTQRIDNLQQTGRVSANGLDWAARSENGQPIPQGMPVEVLRIEGVKLIVRPVN	-0.114
HMADTIEVVVQVNGKVRAKISTSPEVFADSTKLQELALADANVQKFIAGQTIRKVIIPKGTKLLNIV	-0.198
HMADTSPEGVQKLIKAFEQFGVSKDDIEGFIQRRVDAITPANVVSLRKIFTSLRDGMSSAKDWFKGA	0.095
HMADVIKLVNTSVLNVRSGAGINYSKIGSLTQGTKVNIISESNGWSKINYNGKIGYISSQYVSEVS	-1.92
HMADVLLKHGSSGDYVWDLQYRLKTLSLFDQEMTGYFGPHTRQAVVNFQRKYGLPADGVVGPATWRALRK	-2.41
HMADVPSTIFEAYRILGLNPEAPPVAVKKVVDALRMSWHPDHARSEPDRRHREERIKQINAAWDLLKGV	-0.183
HMADVYFDGKFLGETPVTVAVSTTGKPAHEISLIRGGYEPWSTTYQGNPRPGQTATVMAILVHA	0.31
HMAEAAVELSQQILARLLEAGGSLPLSDKSSPEDIHRLFGVSKRTFKKAIGGLYKKGLILIHPERIELP	-1.37
HMAEAETVKFVGNSLLLVSGAAKGERLSVYTVGGQHVLSADATKPVDVAALHSGVYVVRTTNGVITKIVK	-1.25
HMAEATATVTASEMVVRSGPSSSYSVLGSLEKGTVVTVLAASDGIAKISYKGNTGYARIVDMELNSA	-0.612
HMAEDDAVQKAVREAVAESADAVADYKAGSERALNFIVGVVMKKTRGKASPGEVHRLVKAEVEK	0.595
HMAEDLRTLDGIDEDLLRDLAQAGITTRDGLAELSIDELREITGVEPGEAEKIILAARAHWFETDE	0.0602
HMAEEGEQAASNTAAQAEDRAAELAAAGEKGKQITKTLVAEFGIPKNEAYRLALDAVAAVKAER	-0.265
HMAEEPLRIWTDLQGRSIEASFIKFSGNNIVIKMKSGRDYEVARSLFSPGDQKYLSDLKKSTPE	-1.5
HMAEERVLSVPQSLAGERLDAALASLMPDYSRSRLASWIKEGLVTVDGAGAMPKQKLWGGETLRVQAQPT	0.373
HMAEKAVELTENEKAIQTILSNGALEIGELKTKLELSGKQWDVALKGLAKHGITQVSKVEGVVTVGL	0.359
HMAEKGIGRVNADWLNMRTSPGGEVLTVLKQGTELQVIGRSGSWLEVQHGNEQGYVSSRYITIQP	-0.356
HMAEKVIVVADSITVGELAEKLNLPVTNLIGELFKNGIVSTINQRIDFETASIIVEELGLDVELERK	-0.137
HMAELNLPVRKIGGEDYYYRQVKKKETIYGISKELGITKEDIIKYNPSVASGLQRNQILYFPVKDFK	-0.327
HMAELVISVKADGTIHYQDRQLTKEALAAVLETRPEALLNLYVDEKAPFEAFVGVVDIARLKRGGHFVIST	-1.94
HMAENPAYTKGVVNRLYKIRATPYYSYSYNVDQKTYEGRGKQYGEYENLHIGDTITVYYQRSNPSNSEA	-0.288
HMAEPIEKIIIEGNQRIEALTIQSYLLLRVGEPFNRQLMNQTLKSLYATGYFSDVAVTRVSSSLLVK	0.153

Sequence	soluble fraction (log2)
HMAEPLEIGDTVRIIDGFYGGEIGVISELVNPDAKNAEFEQVRVRLDQDTELALPIHNVERVRL	0.498
HMAEPRVQEVYFEFDGKQVEAGQVVSLIEQAYKNEGHQIGRIKDLKVYINSEEGKAYYVINGDDGEGKYIE	0.0727
HMAESLHVTAAALFEGRAMLGIDGSRRLLRVGETSPEGVKLVSATAREAVIEIDGRRQTLAPGRDT	-0.133
HMAESSLPKMPRDESKYIYHSVQPGETVYSLSKRYSVSESDIVKSNPGIDITKLSLGLEVAIPRI	0.691
HMAEVAFEEQNIEQISNLLLRIQAIFAELMTALDKEKGGEIADNLERLYVFFLEKLGDANVRKDPAP	0.585
HMAEVHVDGVTYQFSNPEQAVKFARKIAKELGLKVEVHGETVHVK	-0.0253
HMAEVTLTVREQEVLHLLARGMSNGEMAAHLYVEPTTIKYHLTGLLQKTGSRDRLQAVLWGIRAGMVH	-2.81
HMAEWIYGKNVVKQSIEEGMVLKLILQRKEDPLFVLAQEKQIPVEILDRHKMTSLVKSDRHQGVAAQI	-0.742
HMAFEDYAGEYRSAADFAESLHEDTGTEIPESLRYYIDWQALARDMALNGEIMVFQTGFDEVHIFWS	-0.63
HMAFEITSAERTRLEDIARKGLTAYTAEWKQLPASEKKALNKTGLQDFLKSMAADADSAREEEA	0.0228
HMAFKEQLKAARLAKGYTQEQLATAIGVAKSTFTGYEKGNSEPNMLTIKKLMEILEVDANYLWY	-2.91
HMAFRWQQIADTITSMIANGSYPRGSRLPTEAALADSFGVNRHTVRRAVAALRDTGLVQPRQGAGVFVIG	-2.02
HMAFYQDIAVDLRKQIIDGVYPKNSRLPNQAELAKLYTTSRVTIQKALKILQIEGLIEGRQGSGSYVKGP	-2.11
HMAGHKVDFSELPARSQAFIGKNFPTEMVKNVEMERKDAKDHYTVLLSNGTKVMFDGTSGELTGV	0.0762
HMAGISQGLAENVERRITTLLREQKEVPVHDIDFPGISRETVGQVLHQMVQEEKLLLDDGMISLSPNQ	0.181
HMAGPAGASEVANARDGDDETPLHMAARGGYPGIVRMLLAAGAKADAKSAAGLFPWNYAEDGSELHALLPR	0.139
HMAGPTIVTNSQGVPNYHLVKRGDTVSQIAQRYGLNYRQIGAINNLDSKYTIYSGQWLKLWQG	-1.37
HMAGQWQQDQNGWKYKTDNGDHMKNTWYQDSDSRWYYFGPDGYMKSSTMTPDGYVVGSDGAWIE	-0.662
HMAGSGDLNAKYLASIPAPMKAKILKAVANHYGVSISEFEEEVTDKDAEALYEYIPTRSMAVQVLRDMKG	-0.829
HMAGSGLPVPRFVSLADDRVNARAGPGFRFPINWVYLRKGFPVEVVDEFGPWRRIRDIDGVAAWIHLSMLS	-0.654
HMAGTAFPVRIMLKGIDRIGLLNEITGYISVAMGVNMRKLNLSTEDGIFEGYIDMLVHDRTVLESMIDNL	-0.381
HMAGTELASIKEIQSLVDRSEEALSARNFFWPKDKSESMLLSFRNMFSRLKLTKMDVQIFHGIFKVMEKS	0.24
HMAGVSVTSLTTFWRLAADTPDTPSGADDPSGWSRTEPSIPDGYEGKLYRTIRTIMSDGTATWTSPD	-0.728
HMAGYDTYMVDRDAELLPWLLETLQRESRSKVKATLQGNGIKVNGKRVTQFNYPLKAGMKVSVSKSK	0.0362
HMAHILDLMELKQILRLHMDGLSNRRISDTLGIHRNTINSYVSQFKASKHGIEELLKLSDYELAQLFP	-2.49
